This assay deals with RUNX1 Runt domain (UniProt Q01196 50-178). Nature of the assay: ITC.
RUNX1 Runt domain, sequence (Q01196 50-178): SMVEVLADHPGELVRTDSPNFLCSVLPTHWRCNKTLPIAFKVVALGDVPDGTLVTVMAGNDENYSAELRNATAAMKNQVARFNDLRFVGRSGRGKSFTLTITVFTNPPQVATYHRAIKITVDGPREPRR

B1: CBFβ-SMMHC_(d134-236) (type I CBFβ-SMMHC fusion protein) (other)
chain: MPRVVPDQRSKFENEEFFRKLSRECEIKYTGFRDRPHEERQARFQNACRDGRSEIAFVATGTNLSLQFFPASWQGEQRQTPSREYVDLEREAGKVYLKAPMILNGVCVIWKGWIDLQRLDGMGCLEFDEERAQLHEYETELEDERKQRALAAAAKKKLEGDLKDLELQADSAIKGREEAIKQLRKLQAQMKDFQRELEDARASRDEIFATAKENEKKAKSLEADLMQLQEDLAAAERARKQADLEKEELAEELASSLSGRNALQDEKRRLEARIAQLEEELEEEQGNMEAMSDRVRKATQQAEQLSNELATERSTAQKNESARQQLERQNKELRSKLHEMEGAVKSKFKSTIAALEAKIAQLEEQVEQEAREKQAATKSLKQKDKKLKEILLQVEDERKMAEQYKEQAEKGNARVKQLKRQLEEAEEESQRINANRRKLQRELDEATESNEAMGREVNALKSKLRRGNETSFVPSRRSGGRRVIENADGSEEETDTRDADFNGTKASE
As for B1, the Kd was roughly 709 nM and the “stoichiometry N” value is 1.17.

For the origin of these results see paper PMC2874204 (Cancer cell, 2010).
